US20050048614A1, “Biosynthetic oncolytic molecules and uses therefor” (Children's Medical Center Corporation, priority 2000, published 2005)

Legend:
[1] = system: microtubules; experiment: effect on microtubules in treated cells; format: cell-based
Description: Based on a detailed understanding of the functional domains of osteopontin and an understanding of the role this multifunctional cytokine plays in the regulation of cellular apoptosis, biosynthetic molecules which mimic distinct functions of osteopontin are provided for use in a variety of therapeutic applications, in particular, in the treatment of cancer and inflammatory conditions such as arthritis. In particular, the biosynthetic molecules are useful in the elimination of abnormal or unwanted cells that express at least an integrin receptor and/or that co-express both an integrin and a CD44 receptor. Many of the biosynthetic molecules/peptides disclosed herein are believed to uncouple integrin signaling form CD 44 signaling, resulting in the stabilization of microtubules by down stream activation of rhoB. […] Cells treated with these molecules organize the arrays of disorganized microtubules into parallel bundles and freeze the normal, microtubular, mitotic bundle. As a result, the treated cells form several more asters at various locations with the cell, serving to further strengthen the cell's structure and preventing cell separation.
Many of the biosynthetic molecules/peptides disclosed herein are believed to uncouple integrin signaling form CD 44 signaling. […] Cells treated with these molecules organize the arrays of disorganized into parallel bundles and freeze the normal, microtubular, mitotic bundle. As a result, the treated cells form several more asters at various locations with the cell, serving to further strengthen the cell's structure and preventing cell separation.

[2] = system: metastatic tumor cell line; experiment: apoptosis assay, flow cytometric analysis of propidium iodide uptake; format: cell-based; details: apoptosis assays
Description: A first generation osteopontin-derived biosynthetic molecule, oncolysin N, was engineered based on the isolation of a domain of osteopontin sufficient to impart pro-apoptotic activity when isolated away from the naturally-occurring osteopontin polypeptide. In particular, the oncolysin N molecule was designed to include the following domains: (1) a signal sequence (i.e., signal peptide), derived in this instance from the native osteopontin amino acid sequence (i.e., amino acids 1-16 of the human osteopontin-B amino acid sequence set forth as SEQ ID NO:1); (2) a golgi processing domain derived from the native osteopontin amino acid sequence (i.e., amino acids 17-30 of the human osteopontin-B amino acid sequence set forth as SEQ ID NO:1); (3) a pro-apoptotic domain comprising contiguous amino acid residues of human osteopontin-B sufficient to induce apoptosis (i.e., amino acids 147-170 of the human osteopontin-B amino acid sequence set forth as SEQ ID NO:1) yet lacking additional osteopontin-B sequences which are unnecessary for apoptotic activity, or alternatively decrease pro-apoptotic activity, of the biosynthetic molecule; and (4) two linker domains, a first linker domain operably linking the signal sequence to the golgi processing domain, and a second linker domain operably linking the golgi processing domain to the pro-apoptotic domain. The signal sequence and golgi processing domain optimize synthesis, processing through the golgi and secretion of the biosynthetic oncolysin N molecule. […]
Cells are grown in culture and treated with varying doses of exogenous oncolysin N. Apoptosis is determined by flow cytometric analysis according to the uptake of propidium iodide. […] DNA cleavage in apoptotic cells is assessed by flow cytometric analysis, as cells containing hypodiploid nuclei bind less propidium iodide than intact nuclei.
Cellular apoptosis can also be determined using standard criteria in the art such as nuclear condensation, chromatin fragmentation, and viability as assessed by Trypan blue exclusion. […]

[3] = system: MDA-MB-231 cells; experiment: FragEL apoptotic assay in cells infected with pRetro-oncolysin and induced with Doxycycline; format: cell-based, human; details: 48 h after infection, induced with 3 ug Doxycycline for 6 hours; versus uninduced cells
Protocol: 50,000 Breast tumor cells were infected with approximately 500,000 viral particles in DME+10% FBS containing 4 μg/ml polybrene. After 48 h., the MDA-MB-231 cells were induced with 3 ug of Doxycycline for 6 hours in defined media. Apoptosis was assessed using the FragEL™ apoptotic assay. Uninduced cells are viable and labeled blue when viewed at 10× magnification under a light microscope. […] Each experiment was performed in duplicates and repeated 3 times.

[4] = system: MDA-MB-231 tumor cells; experiment: tubulin staining by indirect fluorescent immunochemistry; format: cell-based, human; details: induced with 3 μg/ml Doxycycline, six hours; versus uninduced infected cells
Protocol: Oncolysin 1-infected MDA-MB-231 tumor cells were induced with 3 μg/ml of Doxycycline. After six hours, the cells were fixed in 10% formaldehyde then stained for tubulin using indirect fluorescent immunochemistry.

[5] = system: MDA-MB-231 Human Breast Cancer Cell; experiment: nuclear stain (H and E) of infected cells; format: cell-based; details: with or without doxycyclin induction for six hours
Description: Infected cells were stained with H and E without induction with doxycyclin or after induction for six hours.

[6] = system: SHP-1; experiment: signal transduction pathway in infected cells (FIG. 3), SHP-1; format: cell-based; details: infected cells compared to control cells
Description: (§1) FIG. 3 depicts an alteration in the signal transduction pathway in cells infected with oncolysin 1/Sophin C as compared to control cells.

[7] = system: PI-3 kinase; experiment: signal transduction pathway in infected cells (FIG. 3), PI-3 kinase; format: cell-based; details: infected cells compared to control cells
Description: as §1

[8] = system: MDA-MB-231 xenografts; experiment: MDA-MB-231 xenograft tumor growth in nude mice (FIG. 4); format: in vivo; details: for tumor volume: compared to controls
Protocol: To evaluate the effectiveness of oncolysin 1/Sophin C against primary tumor growth and metastasis, 1×10^7 MDA-MB-231 breast cancer cells were injected subcutaneously into the left flank of nude mice. After six weeks the resulting tumors were aseptically dissected out, minced and 1 mm-tumor pieces were transplanted into the right flank of nude mice using a trocar needle. One weeks later, when tumors measured approximately 10 mm, mice were assigned to different experimental groups. One set of 24 animals bearing MDA-MB-231 xenografts were divided into 3 groups that received the following treatments: A first group of 8 animals were injected with pRetro-oncolysin (1×10^6 viral particles). After one day and weekly thereafter (for 3 weeks) these animals received a weekly injection of the inducing agent Doxycyxlin (1 mg/kg) through the peritoneal cavity. A second group of 8 animals received a weekly injection of Doxycyclin (uninfected tumors) and a third group received a weekly injection of oncolysin protein (10 μg/kg). In another set of experiments, the pRetro-oncolysin was injected into the marrow stroma of tumor bearing mice. After, day one, the animals were treated as above, with weekly injection of Doxycyclin. Tumors were measured once every two days with microcalipers, and tumor volume was calculated as length×width×height×0.5236. Body weight was measured on the day of the injection, 4 days later and weekly thereafter. Four days after the first injection, blood samples were collected from the tail vein using the Unopette™ micro-collection kit. Total leukocyte and platelet counts were determined manually using a hemocytometer. Blood smears stained with the Hema3™ kit were used for assessing absolute numbers of granulocytes and lymphocytes. Treatment-related toxicity was evaluated based on the differences in body weight, liver and kidney marker enzymes, and hematological parameters between treatment groups. 20 weeks after treatment, animals were killed by decapitation under anesthesia. […] Liver, heart, uterus, ovaries, lungs spinal cord and all long bones were evaluated histologically.

[9] = system: breast, prostate and uterine tumors; experiment: tumor growth in breast, prostate and uterine tumor models, dose response (FIG. 5); format: in vivo
Protocol: The effect of Sophin C on tumor growth was evaluated for three tumor types, breast, prostate and uterine.

Molecule | capping of microtubules [1] | polymerization of microtubules [1] | apoptotic activity (induction of apoptosis) [2] | further results
GIPVKQADSGSSEEKGGGPPTPVVPTVDTYDGRGDSVVYGLRKKKAARG RRAARGRR (GIPVKQADSGSSEEKGGGPPTPVVPTVDTYDGRGDSVVYGLRKKKAARGRRAARGRR) [SEQ ID NO:10] | inhibit the capping of microtubules | induces their unidirectional polymerization |  | 
PGIPVKQADSGSSEEKGGGPGTPVVPTVDTYDGRGDSVVYGLRKKKAAR GRRAARGRR (PGIPVKQADSGSSEEKGGGPGTPVVPTVDTYDGRGDSVVYGLRKKKAARGRRAARGRR) [SEQ ID NO:14] | inhibit the capping of microtubules | induces their unidirectional polymerization |  | 
osteopontin-B: native human osteopontin-B, a preferred splice variant of the human osteopontin gene [reference compound] |  |  | no apoptotic activity | 
PYAGRGDSVVYGLKKKNNQKAEPLIGRKKTR [SEQ ID NO:16] | inhibit the capping of microtubules | induces their unidirectional polymerization |  | 
PGIPVKQADSGSSEEKGGGPGTPVVPTVDTYDGRGDSVVYGLRKKKAARGRRAARGRR (PGIPVKQADSGSSEEKGGGPGTPVVPTVDTYDGRGDSVVYGLRKKKAARGRRAARGRR) [SEQ ID NO:15] | inhibit the capping of microtubules | induces their unidirectional polymerization |  | 
MRIAVICFCLLGITCAGGGPGIPVKQADSGSSEEKGGGPGTPVVPTVDTY DGRGDSVVYGLRSKKAARGRRAARGRR (protein) MRIAVICFCLLGITCAGGGPGIPVKQADSGSSEEKGGGPGTPVVPTVDTYDGRGDSVVYGLRSKKAARGRRAARGRR | inhibit the capping of microtubules | induces their unidirectional polymerization |  | 
MRIAVICFCLLGITCAGGGPGIPVKQADSGSSEEKGGGPGTPVVPTVDTY DGRGDSVVYGLRKKKAARGRRAARGRR (protein) MRIAVICFCLLGITCAGGGPGIPVKQADSGSSEEKGGGPGTPVVPTVDTYDGRGDSVVYGLRKKKAARGRRAARGRR | inhibit the capping of microtubules | induces their unidirectional polymerization |  | 
… VYGLRKKKAARGRRAARGRR (protein, His tag) HHGHHGGHHHPGIPVKQADSGSSEEKGGGPPTPVVPTVDTYDGRGDSVVYGLRKKKAARGRRAARGRR | inhibit the capping of microtubules | induces their unidirectional polymerization |  | 
Oncolysin 2: second generation molecule: oncolysin N with a synthetic collagen binding domain at the C terminus (protein) MRIAVICFCLLGITCAGGGPGIPVKQADSGSSEEKGGGPGTPVVPTVDTYDGRGDSVVYGLRSKPAGAAGGPAGPAGPAGPAGPAGP |  |  | more effective at promoting apoptosis than oncolysin N | 
oncolysin 1/Sophin C: second generation molecule: oncolysin N with synthetic heparin binding domain (RSKK and RGRR) at the C terminus; 71mer (protein) MRIAVICFCLLGITCAGGGPGIPVKQADSGSSEEKGGGPGTPVVPTVDTYDGRGDSVVYGLRSKKAARGRR | inhibit the capping of microtubules | induces their unidirectional polymerization | dramatically increase apoptotic activity | apoptosis (FragEL staining) [3]: undergo apoptosis; tubulin staining [4]: stabilized tubulin around multi-nuclei; multinucleation [5]: Multinucleation was observed only in induced cells; SHP-1 protein expression [6]: decreased SHP-1 protein expression; PI-3 kinase expression [7]: increased PI-3 kinase expression; health of treated mice ([8]; all treated mice, after approximately 6 months, control animals died or were sacrificed): remained healthy; tumor volume ([8]; group 1: pRetro-oncolysin 1×10^6 viral particles plus weekly Doxycyclin 1 mg/kg): striking reduction in tumor volume; tumor volume ([8]; group 3: weekly injection of oncolysin protein 10 μg/kg): striking reduction in tumor volume; tumor volume ([9]; 50 μg/kg protein): reduction in tumor volume; tumor volume ([9]; 500 μg/kg protein): reduction in tumor volume
